Measurements reported in publication PMC314469, “Protein Interaction Networks by Proteome Peptide Scanning” (PLoS Biology, 2004).

T1: Rvs167 SH3 (RV167_YEAST), P39743
T1 chain: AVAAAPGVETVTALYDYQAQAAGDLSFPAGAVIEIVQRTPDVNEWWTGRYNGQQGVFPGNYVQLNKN

T2: Myo5 SH3 (MYO5_YEAST), Q04439
T2 chain: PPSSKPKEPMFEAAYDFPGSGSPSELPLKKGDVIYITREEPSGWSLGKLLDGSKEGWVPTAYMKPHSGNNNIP

T3: Boi2 SH3 (BOI2_YEAST), P39969
T3 chain: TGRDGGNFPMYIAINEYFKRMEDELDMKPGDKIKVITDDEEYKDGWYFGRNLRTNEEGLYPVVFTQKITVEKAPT

T4: Yhr016c SH3 (YSC84_YEAST), P32793
T4 chain: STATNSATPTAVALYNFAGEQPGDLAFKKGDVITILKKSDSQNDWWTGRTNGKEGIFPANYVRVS

T5: Yfr024 SH3 (LSB3_YEAST), P43603
T5 chain: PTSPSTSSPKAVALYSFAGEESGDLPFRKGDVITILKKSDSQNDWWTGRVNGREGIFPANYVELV

T6: Boi1 SH3 (BOI1_YEAST), P38041
T6 chain: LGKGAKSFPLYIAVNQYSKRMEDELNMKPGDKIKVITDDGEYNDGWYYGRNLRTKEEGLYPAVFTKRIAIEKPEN


Columns and labels:
Test in all cases: SPOT array
[1] = biological target: Sho1 SH3 (SHO1_YEAST), P40073
Chain of Sho1 SH3 (SHO1_YEAST), P40073 (P40073 295-366): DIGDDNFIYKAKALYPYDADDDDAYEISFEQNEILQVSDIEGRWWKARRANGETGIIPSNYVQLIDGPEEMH

[2] = biological target: T1, Rvs167 SH3 (RV167_YEAST), P39743
[3] = biological target: T2, Myo5 SH3 (MYO5_YEAST), Q04439
[4] = biological target: T3, Boi2 SH3 (BOI2_YEAST), P39969
[5] = biological target: T4, Yhr016c SH3 (YSC84_YEAST), P32793
[6] = biological target: T5, Yfr024 SH3 (LSB3_YEAST), P43603
[7] = biological target: T6, Boi1 SH3 (BOI1_YEAST), P38041

Row | Binder | normalised SPOT signal, Boehringer light units (BLU); mean over the file's lines of this peptide [1] | normalised SPOT signal, Boehringer light units (BLU); mean over the file's lines of this peptide [2] | normalised SPOT signal, Boehringer light units (BLU); mean over the file's lines of this peptide [3] | normalised SPOT signal, Boehringer light units (BLU); mean over the file's lines of this peptide [4] | normalised SPOT signal, Boehringer light units (BLU); mean over the file's lines of this peptide [5] | normalised SPOT signal, Boehringer light units (BLU); mean over the file's lines of this peptide [6] | normalised SPOT signal, Boehringer light units (BLU); mean over the file's lines of this peptide [7]
1 | KNLLREIPQVPAFQ [YLR077W 141-154] | 84.8 | 2030 | 104 | 6.5 | 142 | 1080 | 196
2 | KMSAKNTPKHPVDI [YPL082C 209-222] | 102 | 301 | 307 | 42.3 | 332 | 978 | 1220
3 | KLHEKYFPDLPKEV [YDR527W 252-265] | 30.2 | 57.3 | 110 | 15.3 | 4.5 | 30.7 | 90.7
4 | KPAGRPIPPAPTHY [YGR058W 101-114] | 115 | 2260 | 189 | 0 | 2860 | 4480 | 90.4
5 | KKNPKKSPMGPQGA [YPL214C 146-159] | 136 | 143 | 1010 | 66.4 | 70.6 | 291 | 725
6 | KLYYRHRPQKPVRT [YOL164W 144-157] | 126 | 153 | 916 | 27.1 | 86.9 | 756 | 599
7 | KLNKRVLPSKPKKS [YLR183C 350-363] | 1390 | 810 | 919 | 1.5 | 165 | 2670 | 309
8 | KLVLRNVPILPILN [YBL008W 776-789] | 24.2 | 383 | 303 | 17.3 | 74.5 | 1510 | 41.9
9 | KLPKKFPPPTPLLE [YER172C 1312-1325] | 69.2 | 10.1 | 19700 | 0 | 6 | 39.9 | 821
10 | KNLKKYDPEDPNRR [YPL093W 383-396] | 76.6 | 121 | 207 | 0 | 71.3 | 45.8 | 656
11 | KNIIKYVPWGPPLE [YLR142W 425-438] | 33.3 | 16.2 | 164 | 13.9 | 26.6 | 1.3 | 0
12 | KNPTKSPPPPPSPS [YLR337C 698-711] | 0 | 41 | 27800 | 16.7 | 11.2 | 74.8 | 36.2
13 | KNILKVSPVLPSIL [YMR247C 301-314] | 57.8 | 59.5 | 118 | 0.8 | 10.1 | 0 | 304
14 | KLKIKILPEQPQLE [YDR407C 838-851] | 548 | 56.9 | 261 | 0 | 17.7 | 6 | 1350
15 | KMAKKLLPYKPHNS [YBR270C 208-221] | 522 | 37.6 | 708 | 9.1 | 37.4 | 182 | 156
16 | KKVIRNYPGHPEGT [YDR364C 152-165] | 64.4 | 29 | 418 | 24.6 | 14 | 34.3 | 582
